Laboratory results published in US20190002527A1 (CHILDREN S MEDICAL CENTER, published 2019).

Legend:
[1] = target: T1, CD98 (cluster of differentiation 98) (human, UniProt Q01650 1-507); assay: co-IP from transfected HEK293T cells, IP anti-CD98, blot anti-myc
T1 construct: Endogenous CD98 in lysates of human HUVE or HEK293T cells; also called LAT1; transmembrane amino acid transporter CD98
Description: (§1) FIG. 2A depicts a schematic representation of TRPV4. […] The right panel gives the Western blotting for the expression of each transgene in total cell lysates of respective transfectants.

[2] = target: T2, TRPV4 (transient receptor potential vanilloid 4) (human, UniProt Q9HBA0 1-871); assay: co-IP from transfected HEK293T cells, IP anti-TRPV4, blot anti-HA
T2 construct: Endogenous TRPV4 in lysates of human HUVE or HEK293T cells, co-immunoprecipitation; also called TRPV4 membrane ion channel
Description: as §1

β1-integrin = target: T3, β1-integrin (human, UniProt P05556 21-798); assay: co-IP from transfected HEK293T cells, IP anti-β1-integrin, blot anti-HA
T3 construct: Endogenous β1-integrin in lysates of human HUVE or HEK293T cells; No signal peptide limits are stated; also called B1-integrin; ITGB1
Description: as §1

T1 sequence (Q01650 whole entry): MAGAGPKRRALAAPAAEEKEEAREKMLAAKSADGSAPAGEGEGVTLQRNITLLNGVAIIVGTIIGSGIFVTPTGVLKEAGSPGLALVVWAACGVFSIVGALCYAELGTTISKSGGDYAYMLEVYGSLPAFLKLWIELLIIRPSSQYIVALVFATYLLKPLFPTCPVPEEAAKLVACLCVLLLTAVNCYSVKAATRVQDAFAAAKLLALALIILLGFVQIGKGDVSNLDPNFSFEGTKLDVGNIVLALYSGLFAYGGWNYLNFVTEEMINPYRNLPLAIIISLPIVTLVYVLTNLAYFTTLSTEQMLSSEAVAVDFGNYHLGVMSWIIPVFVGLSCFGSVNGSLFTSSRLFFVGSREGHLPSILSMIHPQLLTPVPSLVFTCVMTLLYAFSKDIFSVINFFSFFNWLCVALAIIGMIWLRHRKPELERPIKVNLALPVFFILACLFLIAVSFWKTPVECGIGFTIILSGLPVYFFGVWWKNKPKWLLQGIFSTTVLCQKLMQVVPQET
T3 sequence (P05556 21-798 limits assumed): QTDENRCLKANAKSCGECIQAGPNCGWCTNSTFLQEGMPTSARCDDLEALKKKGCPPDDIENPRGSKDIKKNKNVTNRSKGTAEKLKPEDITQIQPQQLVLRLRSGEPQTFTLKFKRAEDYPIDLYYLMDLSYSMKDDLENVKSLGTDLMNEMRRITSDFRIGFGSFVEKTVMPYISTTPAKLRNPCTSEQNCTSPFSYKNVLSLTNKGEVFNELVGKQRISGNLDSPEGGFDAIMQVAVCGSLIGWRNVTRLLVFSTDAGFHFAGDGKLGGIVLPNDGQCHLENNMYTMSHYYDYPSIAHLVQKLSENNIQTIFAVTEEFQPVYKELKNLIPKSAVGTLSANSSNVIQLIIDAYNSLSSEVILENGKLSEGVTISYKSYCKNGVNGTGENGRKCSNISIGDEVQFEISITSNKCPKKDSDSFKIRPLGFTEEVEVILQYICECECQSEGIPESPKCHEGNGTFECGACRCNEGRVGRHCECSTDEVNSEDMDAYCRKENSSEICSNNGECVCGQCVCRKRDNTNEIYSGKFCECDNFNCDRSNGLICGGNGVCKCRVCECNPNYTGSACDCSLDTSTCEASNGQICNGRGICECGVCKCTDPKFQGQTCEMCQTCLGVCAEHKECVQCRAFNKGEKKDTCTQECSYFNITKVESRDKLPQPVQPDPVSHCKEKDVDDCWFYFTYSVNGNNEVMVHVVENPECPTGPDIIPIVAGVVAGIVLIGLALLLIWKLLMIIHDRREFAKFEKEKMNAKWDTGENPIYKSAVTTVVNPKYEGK

| Binder | binding result [1] | binding result [2] | binding result (β1-integrin) |
| --- | --- | --- | --- |
| myc-linked TRPV4 lacking all ankyrin repeat domains (ΔAR1-3) (other, also called TRPV4 lacking all three ankyrin repeat domains; not shown: myc tag) MADSSEGPRAGPGEVAELPGDESGTPGGEAFPLSSLANLFEGEDGSLSPSPADASRPAGPGDGRPNLRMKFQGAFRKGVPNPIDLLESTLYESSVVPGPKKAPMDSLFDYGTYRHHSSDNKRWRKKIIEKQPQSPKAPAPQPPPILKVFNRPILFDIVSRGSTADLDGLLPFLLTHKKRLTDEEFREPSTGKTCLPKALLNLSNGRNDTIPVLLDIAERTGNMREFINSPFRDIYYQARGRFFQPKDEGGYFYMRRQDSRGNTVLHALVAIADNTRENTKFVTKMYDLLLLKCARLFPDSNLEAVLNNTRHLSRKFKDWAYGPVYSSLYDLSSLDTCGEEASVLEILVYNSKIENRHEMLAVEPINELLRDKWRKFGAVSFYINVVSYLCAMVIFTLTAYYQPLEGTPPYPYRTTVDYLRLAGEVITLFTGVLFFFTNIKDLFMKKCPGVNSLFIDGSFQLLYFIYSVLVIVSAALYLAGIEAYLAVMVFALVLGWMNALYFTRGLKLTGTYSIMIQKILFKDLFRFLLVYLLFMIGYASALVSLLNPCANMKVCNEDQTNCTVPTYPSCRDSETFSTFLLDLFKLTIGMGDLEMLSSTKYPVVFIILLVTYIILTFVLLLNMLIALMGETVGQVSKESKHIWKLQWATTILDIERSFPVFLRKAFRSGEMVTVGKSSDGTPDRRWCFRVDEVNWSHWNQNLGIINEDPGKNETYQYYGFSHTVGRLRRDRWSSVVPRVVELNKNSNPDEVVVPLDSMGNPRCDGHQQGYPRKWRTDDAPL | no binding |  |  |
| HA-linked CD98 that lacks high homology domain (ΔHH) (other, Built from 'deletion of a 50 amino acid (160-210aa) high homology domain'; also called CD98 lacking the high homology domain; not shown: HA tag) MELQPPEASIAVVSIPRQLPGSHSEAGVQGLSAGDDSETGSDCVTQAGLQLLASSDPPALASKNAEVTVETGFHHVSQADIEFLTSIDPTASASGSAGITGTMSQDTEVDMKEVELNELEPEKQPMNAASGAAMSLAGAEKNGLVKIKVAEDEAEAAAACRELPAQKWWHTGALYRIGDLQAFQGHGAGNLAGLKGRLDYLSSLKVKGLVLGPIHKNQKDDVAQTDLLQIDPNFGSKEDFDSLLQSAKKKSIRVILDLTPNYRGENSWFSTQVDTVATKVKDALEFWLQAGVDGFQVRDIENLKDASSFLAEWQNITKGFSEDRLLIAGTNSSDLQQILSLLESNKDLLLTSSYLSDSGSTGEHTKSLVTQYLNATGNRWCSWSLSQARLLTSFLPAQLLRLYQLMLFTLPGTPVFSYGDEIGLDAAALPGQPMEAPVMLWDESSFPDIPGAVSANMTVKGQSEDPGSLLSLFRRLSDQRSKERSLLHGDFHAFSAGPGLFSYIRHWDQNERFLVVLNFGDVGLSAGLQASDLPASASLPAKADLLLSTQPGREEGSPLELERLKLEPHEGLLLRFPYAA |  | no binding | no binding |
